# Results published in patent publication US20180127502A1 (Memorial Sloan Kettering, published 2018).
# Tests used:
# human PD-1 monomer = human PD-1 monomer (human, UniProt Q15116 25-167, limits assumed); assay: ELISA on PD-1 monomer (FIG. 1)
# Description: ET901 ScFv-Fc (mouse IgG1 Fc) served as the negative control.
# [1] = target: T1, human PD-1 on human T cells (human, UniProt Q15116 25-288); assay: flow cytometry, 1 µg/ml antibody, human T cells overexpressing human PD-1, goat anti-human Ig FITC
# T1 construct: whole, on cells; In the functional rows it is the PD-1 of the transduced human peripheral blood T cells; also called PD-1 T cells; human T cells modified to overexpress human PD-1
# T1 sequence (Q15116 25-288): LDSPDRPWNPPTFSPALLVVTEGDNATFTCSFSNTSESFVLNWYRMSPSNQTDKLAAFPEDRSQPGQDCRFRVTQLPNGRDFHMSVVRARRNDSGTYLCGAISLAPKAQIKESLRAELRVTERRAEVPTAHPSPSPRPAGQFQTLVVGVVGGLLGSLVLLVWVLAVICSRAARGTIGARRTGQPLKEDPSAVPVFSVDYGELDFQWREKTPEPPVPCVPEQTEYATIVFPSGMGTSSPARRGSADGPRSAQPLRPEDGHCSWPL
# Description: Flow cytometry was used to detect bound antibody using a goat anti-human Ig FITC conjugated antibody. […] Data shown is representative of one experiment.
# human PD-1 monomer, sequence (Q15116 25-167 limits assumed): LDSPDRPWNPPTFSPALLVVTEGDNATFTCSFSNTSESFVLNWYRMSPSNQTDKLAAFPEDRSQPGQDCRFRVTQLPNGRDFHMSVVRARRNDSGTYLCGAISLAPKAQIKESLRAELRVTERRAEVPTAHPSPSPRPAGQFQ
Binder,binding result (human PD-1 monomer),percent of PD-1 human T cells bound [1] [%]
"anti-PD-1 scFv-Fc clone 23 (scFv linked to murine Fc) (Fc fusion, also called PD1-23; not shown: murine Fc (mouse IgG1a) domain) QAVLTQPPSMSEAPRQRVTISCSGSSSNIGNNAVNWYQQLPGKAPKLLIYYNDLLSSGVSDRFSGSKSGTSASLAISGLQSEDEADYYCAAWDDSVNGYVFGTGTKVTVLGGSRGGGGSGGGGSGGGGSEVQLVQSGAEVKKPGDSVKVSCKASGYTFTRFGFSWVRQAPGQGLEWMGWISVNNGNTKYAQKYQGRVTMTTDTSTSTAYMELRSLRSDDTAVYYCARYMYGRRDSWGQGTLVTVSS",binds,–
"anti-PD-1 scFv-Fc clone 26 (scFv linked to murine Fc) (Fc fusion, also called PD1-26; not shown: murine Fc (mouse IgG1a) domain) QSVLTQPPSVSVAPGKTARITCGGNNIGSKSVHWYQQKPGQAPVLVIYYDSDRPSGIPERFSGSNSGNTATLTISRVEAGDEADYYCQVWDNHSDVVFGGGTKLTVLGGGGGSGGGGSGGGGSQVQLVESGGGLVQPGGSLRLSCAASGYTRNKFSSYAMSWVRQAPGKGLEWVSGISGSGGTTYYADSVKGRFTISRDNSKNTQYLQLDSLRAEDTAVYYCARWYSSYYDVWGQGTLVTVSS",binds,–
"anti-PD-1 scFv-Fc clone 40 (scFv linked to murine Fc) (Fc fusion, also called PD-1-40; not shown: murine Fc (mouse IgG1a) domain) QSVLTQPPSASGTPGQRVTISCSGSRSNIGENTVNWYQQLPGTAPKLLIYSNNQRPSGVPDRFSGSKSGTSASLAISGLHSDDEADYFCAAWDDRLNGYVFGTGTKVTVLGGGGGSGGGGSGGGGSQVQLVQSGPEVKKPGASVKVSCKASGYTFTNYGFTWVRQAPGQGLEWMGWIGAQKGDTEYAQKFQGRVTMTTDTSTSTVYLELRSLRSDDTAVYYCARSQGVPFDSWGQGTLVTVSS",binds,–
"anti-PD-1 clone 23 monoclonal antibody (antibody, V domains shown, also called Clone 23 mAb; ET130-23) VH: EVQLVQSGAEVKKPGDSVKVSCKASGYTFTRFGFSWVRQAPGQGLEWMGWISVNNGNTKYAQKYQGRVTMTTDTSTSTAYMELRSLRSDDTAVYYCARYMYGRRDSWGQGTLVTVSS VL: QAVLTQPPSMSEAPRQRVTISCSGSSSNIGNNAVNWYQQLPGKAPKLLIYYNDLLSSGVSDRFSGSKSGTSASLAISGLQSEDEADYYCAAWDDSVNGYVFGTGTKVTVLG",–,51
"anti-PD-1 clone 26 monoclonal antibody (antibody, V domains shown, also called Clone 26 mAb; ET130-26) VH: QVQLVESGGGLVQPGGSLRLSCAASGYTRNKFSSYAMSWVRQAPGKGLEWVSGISGSGGTTYYADSVKGRFTISRDNSKNTQYLQLDSLRAEDTAVYYCARWYSSYYDVWGQGTLVTVSS VL: QSVLTQPPSVSVAPGKTARITCGGNNIGSKSVHWYQQKPGQAPVLVIYYDSDRPSGIPERFSGSNSGNTATLTISRVEAGDEADYYCQVWDNHSDVVFGGGTKLTVLG",–,78
"anti-PD-1 clone 27 monoclonal antibody (antibody, V domains shown, also called Clone 27 mAb; E27 mAb) VH: not shown VL: QSVLTQPPSVSVAPGKTARITCGGNNIGSKSVHWYQQRPGQAPVLVIYYDSDRPSGIPERFSGSNSGNTATLTISRVEAGDEADYYCQVWDSSSDYVFGIGTKVTVLG",–,67
